# From publication PMC8586251, “Cryo-EM structure provides insights into the dimer arrangement of the O-linked β-N-acetylglucosamine transferase OGT” (Nature Communications, 2021)
# Residue numbers refer to the chain shown, from its start.
# B1: O-GlcNAc transferase OGT, full length, isoform 3, wildtype (construct for SEC-MALLS) (enzyme, UniProt O15294-1 1-1046, looked up)
# chain: MASSVGNVADSTEPTKRMLSFQGLAELAHREYQAGDFEAAERHCMQLWRQEPDNTGVLLLLSSIHFQCRRLDRSAHFSTLAIKQNPLLAEAYSNLGNVYKERGQLQEAIEHYRHALRLKPDFIDGYINLAAALVAAGDMEGAVQAYVSALQYNPDLYCVRSDLGNLLKALGRLEEAKACYLKAIETQPNFAVAWSNLGCVFNAQGEIWLAIHHFEKAVTLDPNFLDAYINLGNVLKEARIFDRAVAAYLRALSLSPNHAVVHGNLACVYYEQGLIDLAIDTYRRAIELQPHFPDAYCNLANALKEKGSVAEAEDCYNTALRLCPTHADSLNNLANIKREQGNIEEAVRLYRKALEVFPEFAAAHSNLASVLQQQGKLQEALMHYKEAIRISPTFADAYSNMGNTLKEMQDVQGALQCYTRAIQINPAFADAHSNLASIHKDSGNIPEAIASYRTALKLKPDFPDAYCNLAHCLQIVCDWTDYDERMKKLVSIVADQLEKNRLPSVHPHHSMLYPLSHGFRKAIAERHGNLCLDKINVLHKPPYEHPKDLKLSDGRLRVGYVSSDFGNHPTSHLMQSIPGMHNPDKFEVFCYALSPDDGTNFRVKVMAEANHFIDLSQIPCNGKAADRIHQDGIHILVNMNGYTKGARNELFALRPAPIQAMWLGYPGTSGALFMDYIITDQETSPAEVAEQYSEKLAYMPHTFFIGDHANMFPHLKKKAVIDFKSNGHIYDNRIVLNGIDLKAFLDSLPDVKIVKMKCPDGGDNADSSNTALNMPVIPMNTIAEAVIEMINRGQIQITINGFSISNGLATTQINNKAATGEEVPRTIIVTTRSQYGLPEDAIVYCNFNQLYKIDPSTLQMWANILKRVPNSVLWLLRFPAVGEPNIQQYAQNMGLPQNRIIFSPVAPKEEHVRRGQLADVCLDTPLCNGHTTGMDVLWAGTPMVTMPGETLASRVAASQLTCLGCLELIAKNRQEYEDIAVKLGTDLEYLKKVRGKVWKQRISSPLFNTKQYTMELERLYLQMWEHYAAGNKPDHMIKPVEVTESA
# notes: also called OGT wildtype; source: E. coli BL21-Gold(DE3), purified (HisTrap, Q Sepharose, Superdex 200)
# B2: O-GlcNAc transferase OGT, full length, isoform 3, E206A (enzyme, UniProt O15294-1 1-1046, looked up)
# chain: B1 chain with E206A
# notes: O-GlcNAc transferase OGT, isoform 3, UniProt O15294-1, full length, site-directed mutant; source: E. coli BL21-Gold(DE3), purified (HisTrap, Q Sepharose, Superdex 200)
# B3: O-GlcNAc transferase OGT, full length, isoform 3, E215A (enzyme, UniProt O15294-1 1-1046, looked up)
# chain: B1 chain with E215A
# notes: as for B2
# Columns and labels:
# [1] = biological target: O-GlcNAc transferase OGT, full length, isoform 3, double mutant (W208A, I211A) (UniProt O15294)
# [2] = biological target: the molecule itself; assay: SEC-MALS; SEC-MALLS; Superdex S200 10/300 GL in 20 mM HEPES 7.5, 200 mM NaCl, room temperature; 100 µl of 3 mg/ml OGT injected, 0.5 ml/min; dimer against monomer
Molecule,"relative second order rate constant of glycosyl transfer to TAB1 protein (fluorescent OGT activity assay), against wildtype OGT (% lower than wildtype) [1]",stoichiometry N [2]
"O-GlcNAc transferase OGT, full length, isoform 3, double mutant (W208A, I211A) (from UniProt O15294-1 1-1046) (enzyme)",50,
B1,,2
B2,,2
B3,,2
